The target of experiment [1] is T1, N(A2B2)A-avi-His (human, biotinylated avi-tag).
T1 construct: also called biotinylated N(A2B2)A-avi-His
T1 chain: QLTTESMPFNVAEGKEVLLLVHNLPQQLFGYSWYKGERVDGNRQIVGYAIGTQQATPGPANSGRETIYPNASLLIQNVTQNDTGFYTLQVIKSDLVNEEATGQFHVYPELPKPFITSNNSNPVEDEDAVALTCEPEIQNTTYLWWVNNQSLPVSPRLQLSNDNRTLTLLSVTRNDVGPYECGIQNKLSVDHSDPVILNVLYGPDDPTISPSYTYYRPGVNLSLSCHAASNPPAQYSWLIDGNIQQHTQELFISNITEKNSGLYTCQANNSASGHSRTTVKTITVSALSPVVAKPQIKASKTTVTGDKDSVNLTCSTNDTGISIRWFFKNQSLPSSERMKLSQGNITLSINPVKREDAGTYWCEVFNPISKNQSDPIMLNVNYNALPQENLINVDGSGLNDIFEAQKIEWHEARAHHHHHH
In words: SPR ProteOn, purified bispecific IgG.

The target in experiment [2] is T2, FcRn, biotinylated, coupled to streptavidin-sepharose (Homo sapiens (Human), UniProt P55899 24-297; P61769 21-119, The receptor is biotinylated and coupled to streptavidin-sepharose. The patent states neither the biotinylation site nor any tag.).
T2 construct: also called FcRn-sepharose matrix; copies: 1 + 1
Nature of the experiment: FcRn affinity chromatography.

Experiment [3] deals with T3, recombinant CD79b-His (Sinobiological #29750-H08H) (Homo sapiens (Human), UniProt P40259 29-159).
T3 construct: bought protein; also called soluble recombinant CD79b-His
T3 sequence: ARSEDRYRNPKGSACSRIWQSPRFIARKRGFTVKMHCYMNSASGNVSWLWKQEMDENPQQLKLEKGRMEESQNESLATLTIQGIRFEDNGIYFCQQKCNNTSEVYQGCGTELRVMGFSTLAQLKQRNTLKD
In words: SPR Biacore T200, CD79b-His captured by anti-penta-His. (Surface plasmon resonance follows binding to a sensor surface in real time, without labels.)

For experiment [4], the target named is T1, N(A2B2)A-avi-His. Nature of the experiment: SPR ProteOn, purified Fab.

Experimental findings from US20200199234A1 (published 2020) are described below.

The koff is the rate constant with which the complex falls apart. Usually Kd stands for the free concentration of one partner at which half of the binding sites on the other are occupied at equilibrium, for simple one-to-one binding. One may read the kon as the second-order rate constant of association.

B1: CEA(P006.038-combo1)-CD28(SA_Variant 15) bispecific 1+1 IgG (bispecific antibody)
heavy 1: EIVLTQSPATLSLSPGERATLSCRASSSVTYIHWYQQKPGQAPRSWIYATSNLASGIPARFSGSGSGTDFTLTISSLEPEDFAVYYCQHWSSVPPTFGQGTKLEIKSSASTKGPSVFPLAPSSKSTSGGTAALGCLVKDYFPEPVTVSWNSGALTSGVHTFPAVLQSSGLYSLSSVVTVPSSSLGTQTYICNVNHKPSNTKVDKKVEPKSCDKTHTCPPCPAPEAAGGPSVFLFPPKPKDTLMISRTPEVTCVVVDVSHEDPEVKFNWYVDGVEVHNAKTKPREEQYNSTYRVVSVLTVLHQDWLNGKEYKCKVSNKALGAPIEKTISKAKGQPREPQVCTLPPSRDELTKNQVSLSCAVKGFYPSDIAVEWESNGQPENNYKTTPPVLDSDGSFFLVSKLTVDKSRWQQGNVFSCSVMHEALHNHYTQKSLSLSP
light 1: EVQLLESGGGLVQPGGSLRLSCAASGFYFTDYAMNWVRQAPGKGLEWLGVISNKANAYTTEYSASVKGRFTISRDKSKNTLYLQMNSLRAEDTATYYCTRDRGIRFGFDYWGQGTTVTVSSASVAAPSVFIFPPSDEQLKSGTASVVCLLNNFYPREAKVQWKVDNALQSGNSQESVTEQDSKDSTYSLSSTLTLSKADYEKHKVYACEVTHQGLSSPVTKSFNRGEC
heavy 2: not shown
light 2: not shown
With B1, the koff with N(A2B2)A-avi-His [1] was determined as 7.99e-05 s⁻¹.

B2: Molecule 11A: CEA (A5H1EL1D)-CD28 (SA) 1+1 format (bispecific antibody, human IgG1, kappa, L234A L235A)
heavy 1: EIVLTQSPATLSLSPGERATLSCRASSSVTYIHWYQQKPGQAPRSWIYATSNLASGIPARFSGSGSGTDFTLTISSLEPEDFAVYYCQHWSSKPPTFGQGTKLEIKSSASTKGPSVFPLAPSSKSTSGGTAALGCLVKDYFPEPVTVSWNSGALTSGVHTFPAVLQSSGLYSLSSVVTVPSSSLGTQTYICNVNHKPSNTKVDKKVEPKSCDKTHTCPPCPAPEAAGGPSVFLFPPKPKDTLMISRTPEVTCVVVDVSHEDPEVKFNWYVDGVEVHNAKTKPREEQYNSTYRVVSVLTVLHQDWLNGKEYKCKVSNKALGAPIEKTISKAKGQPREPQVCTLPPSRDELTKNQVSLSCAVKGFYPSDIAVEWESNGQPENNYKTTPPVLDSDGSFFLVSKLTVDKSRWQQGNVFSCSVMHEALHNHYTQKSLSLSP
light 1: EVQLLESGGGLVQPGGSLRLSCAASGFTFTDYYMNWVRQAPGKGLEWLGFIGNKANAYTTEYSASVKGRFTISRDKSKNTLYLQMNSLRAEDTATYYCTRDRGLRFYFDYWGQGTTVTVSSASVAAPSVFIFPPSDEQLKSGTASVVCLLNNFYPREAKVQWKVDNALQSGNSQESVTEQDSKDSTYSLSSTLTLSKADYEKHKVYACEVTHQGLSSPVTKSFNRGEC
heavy 2: not shown
light 2: not shown
notes: also called P1AE4773; copies: 1 + 1 + 1 + 1
In the case of B2, the “FcRn affinity (relative retention time)” value in experiment [2] turned out to be 0.21.

B3: Molecule 11B: CEA (A5H1EL1D)-CD28 (SA_Variant 8) 1+1 format (bispecific antibody, human IgG1, kappa, L234A L235A)
heavy 1: EIVLTQSPATLSLSPGERATLSCRASSSVTYIHWYQQKPGQAPRSWIYATSNLASGIPARFSGSGSGTDFTLTISSLEPEDFAVYYCQHWSSKPPTFGQGTKLEIKSSASTKGPSVFPLAPSSKSTSGGTAALGCLVKDYFPEPVTVSWNSGALTSGVHTFPAVLQSSGLYSLSSVVTVPSSSLGTQTYICNVNHKPSNTKVDKKVEPKSCDKTHTCPPCPAPEAAGGPSVFLFPPKPKDTLMISRTPEVTCVVVDVSHEDPEVKFNWYVDGVEVHNAKTKPREEQYNSTYRVVSVLTVLHQDWLNGKEYKCKVSNKALGAPIEKTISKAKGQPREPQVCTLPPSRDELTKNQVSLSCAVKGFYPSDIAVEWESNGQPENNYKTTPPVLDSDGSFFLVSKLTVDKSRWQQGNVFSCSVMHEALHNHYTQKSLSLSP
light 1: EVQLLESGGGLVQPGGSLRLSCAASGFTFTDYYMNWVRQAPGKGLEWLGFIGNKANAYTTEYSASVKGRFTISRDKSKNTLYLQMNSLRAEDTATYYCTRDRGLRFYFDYWGQGTTVTVSSASVAAPSVFIFPPSDEQLKSGTASVVCLLNNFYPREAKVQWKVDNALQSGNSQESVTEQDSKDSTYSLSSTLTLSKADYEKHKVYACEVTHQGLSSPVTKSFNRGEC
heavy 2: not shown
light 2: not shown
notes: also called P1AE4774; copies: 1 + 1 + 1 + 1
B3: the “FcRn affinity (relative retention time)” value in experiment [2] stood at 0.08.

B4: Molecule 11C: CEA (A5H1EL1D)-CD28 (SA_Variant 15) 1+1 format (bispecific antibody, human IgG1, kappa, L234A L235A)
heavy 1: EIVLTQSPATLSLSPGERATLSCRASSSVTYIHWYQQKPGQAPRSWIYATSNLASGIPARFSGSGSGTDFTLTISSLEPEDFAVYYCQHWSSKPPTFGQGTKLEIKSSASTKGPSVFPLAPSSKSTSGGTAALGCLVKDYFPEPVTVSWNSGALTSGVHTFPAVLQSSGLYSLSSVVTVPSSSLGTQTYICNVNHKPSNTKVDKKVEPKSCDKTHTCPPCPAPEAAGGPSVFLFPPKPKDTLMISRTPEVTCVVVDVSHEDPEVKFNWYVDGVEVHNAKTKPREEQYNSTYRVVSVLTVLHQDWLNGKEYKCKVSNKALGAPIEKTISKAKGQPREPQVCTLPPSRDELTKNQVSLSCAVKGFYPSDIAVEWESNGQPENNYKTTPPVLDSDGSFFLVSKLTVDKSRWQQGNVFSCSVMHEALHNHYTQKSLSLSP
light 1: EVQLLESGGGLVQPGGSLRLSCAASGFTFTDYYMNWVRQAPGKGLEWLGFIGNKANAYTTEYSASVKGRFTISRDKSKNTLYLQMNSLRAEDTATYYCTRDRGLRFYFDYWGQGTTVTVSSASVAAPSVFIFPPSDEQLKSGTASVVCLLNNFYPREAKVQWKVDNALQSGNSQESVTEQDSKDSTYSLSSTLTLSKADYEKHKVYACEVTHQGLSSPVTKSFNRGEC
heavy 2: not shown
light 2: not shown
notes: also called P1AE4775; copies: 1 + 1 + 1 + 1
Regarding B4, in experiment [2], the “FcRn affinity (relative retention time)” value was 0.1.

B5: Molecule 18F: CD79b (huMA79b.v28)-CD28 (SA v15) 1+1 (bispecific antibody, human IgG1, kappa, L234A L235A)
heavy 1: not shown
heavy 2: DIQLTQSPSSLSASVGDRVTITCKASQSVDYEGDSFLNWYQQKPGKAPKLLIYAASNLESGVPSRFSGSGSGTDFTLTISSLQPEDFATYYCQQSNEDPLTFGQGTKVEIKSSASTKGPSVFPLAPSSKSTSGGTAALGCLVKDYFPEPVTVSWNSGALTSGVHTFPAVLQSSGLYSLSSVVTVPSSSLGTQTYICNVNHKPSNTKVDKKVEPKSCDKTHTCPPCPAPEAAGGPSVFLFPPKPKDTLMISRTPEVTCVVVDVSHEDPEVKFNWYVDGVEVHNAKTKPREEQYNSTYRVVSVLTVLHQDWLNGKEYKCKVSNKALGAPIEKTISKAKGQPREPQVCTLPPSRDELTKNQVSLSCAVKGFYPSDIAVEWESNGQPENNYKTTPPVLDSDGSFFLVSKLTVDKSRWQQGNVFSCSVMHEALHNHYTQKSLSLSP
light 1: not shown
light 2: EVQLVESGGGLVQPGGSLRLSCAASGYTFSSYWIEWVRQAPGKGLEWIGEILPGGGDTNYNEIFKGRATFSADTSKNTAYLQMNSLRAEDTAVYYCTRRVPIRLDYWGQGTLVTVSSASVAAPSVFIFPPSDEQLKSGTASVVCLLNNFYPREAKVQWKVDNALQSGNSQESVTEQDSKDSTYSLSSTLTLSKADYEKHKVYACEVTHQGLSSPVTKSFNRGEC
notes: also called P1AE9039; CD79b-CD28
Take B5: in experiment [3], the Kd amounted to 76 nM, the koff amounted to 0.0195 s⁻¹ and the kon was determined as 257000 M⁻¹ s⁻¹.

B6: P001.177 Fab fragment (Fab, V domains shown)
VH: EVQLLESGGGLVQPGGSLRLSCAASGFYFTDYYMNWVRQAPGKGLEWLGFISNKANAYTTEYSASVKGRFTISRDKSKNTLYLQMNSLRAEDTATYYCTRDRGLRFYFDYWGQGTTVTVSS
VL: EIVLTQSPATLSLSPGERATLSCRASSSVTYIHWYQQKPGQAPRSWIYATSNLASGIPARFSGSGSGTDFTLTISSLEPEDFAVYYCQHWSSKPPTFGQGTKLEIK
Consider B6, for which the off-rate (koff) in the experiment with N(A2B2)A-avi-His [4] was 0.000785 s⁻¹.

B7: P005.102 Fab fragment (Fab, V domains shown)
VH: EVQLLESGGGLVQPGGSLRLSCAASGFTFTDYYMNWVRQAPGKGLEWLGFIGNKANAYTTEYSASVKGRFTISRDKSKNTLYLQMNSLRAEDTATYYCTRDRGIRFQFDYWGQGTTVTVSS
VL: EIVLTQSPATLSLSPGERATLSCRASSSVTYIHWYQQKPGQAPRSWIYATSNLASGIPARFSGSGSGTDFTLTISSLEPEDFAVYYCQHWSSKSPTFGQGTKLEIK
In turn, B7 returned a dissociation rate constant (koff) with N(A2B2)A-avi-His [4] of 0.000392 s⁻¹.
